Patent publication US20090285830A1 (published 2009)
Residue numbers refer to the chain shown, from its start. Names may count otherwise.

T1: recombinant human lymphotoxin-α (LTα), homotrimer LTα3 (human) (UniProt P01374)
T1 sequence (looked up): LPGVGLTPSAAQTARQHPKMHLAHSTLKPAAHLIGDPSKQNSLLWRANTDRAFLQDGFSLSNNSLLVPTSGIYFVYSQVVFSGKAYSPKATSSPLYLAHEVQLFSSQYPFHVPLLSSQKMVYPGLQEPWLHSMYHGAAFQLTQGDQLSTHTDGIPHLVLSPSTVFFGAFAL

T2: recombinant human lymphotoxin-α (LTα), homotrimer LTα3 (human, UniProt P01374 35-205)
T2 construct: One molecule is used for 'LTα' (plate ELISA), 'rhLTα' (BIACORE, phage ELISA) and 'human LTα3'; also called human LTα3; rhLTα
T2 sequence (looked up): T1 sequence (looked up)

B1: humanized 3F12 version 8 (v5 with CDR-H3 G95A) (antibody, V domains shown)
VH: EVQLVESGGGLVQPGGSLRLSCAASGYTFSSYWIEWVRQAPGKGLEWVGEISPGSGSTNYNEEFKGRATFSADNSKNTAYLQMNSLRAEDTAVYYCADAYHGYWGQGTLVTVSS
VL: DIQMTQSPSSLSASVGDRVTITCKSSQSLLYSTNQKNFLAWYQQKPGKAPKLLIYWASTRDSGVPSRFSGSGSGTDFTLTISSLQPEDFATYYCQQYYSYPRTFGQGTKVEIK
B2: humanized 3F12 v2 (antibody, V domains shown)
VH: B1 VH with A79L, A99G
VL: DIQMTQSPSSLSASVGDRVTITCKSSQSLLYSTNQKNFLAWYQQKPGKAPKLLIYWASTRDSGVPSRFSGSGSGTDFTLTISSLQPEDFATYYCQQYYSYPRTFGQGTKVEIKR
B3: humanized 3F12 v3 (antibody, V domains shown)
VH: B1 VH with F70I, N74K, A79L, A99G
VL: B2 VL
B4: humanized 3F12 v4 (antibody, V domains shown)
VH: B1 VH with F70I, A99G
VL: B2 VL
B5: humanized 3F12 version 10 (v5 with CDR-H3 H100A) (antibody, V domains shown)
VH: B1 VH with A99G, H101A
VL: B1 VL
B6: humanized 2C8.v2 (antibody, IgG1, V domains shown)
VH: EVQLVESGGGLVQPGGSLRLSCAASGYTFTSYVIHWVRQAPGKGLEWVGYNNPYNDGTNYNEKFKGRATISSDKSKNTAYLQMNSLRAEDTAVYYCSRPTMLPWFAYWGQGTLVTVSS
VL: DIQMTQSPSSLSASVGDRVTITCRASQAVSSAVAWYQQKPGKAPKLQIYSASHRYTGVPSRFSGSGSGTDFTLTISSLQPEDFATYYCQQHYSTPWTFGQGTKVEIKR
notes: also called Version 2; wild-type 2C8.v2
B7: humanized 2C8.v16 (antibody, V domains shown)
VH: B6 VH with A68F
VL: B6 VL with Q47L, Q90E, H91S
notes: HC v12 = HC v2 + A67F
B8: humanized 2C8.v7 (antibody, V domains shown)
VH: B6 VH
VL: B6 VL with Q47L
B9: humanized 2C8.v12 (antibody, V domains shown)
VH: B6 VH with A68F
VL: B6 VL with Q47L
notes: HC v12 = HC v2 + A67F); also called Version 12
B10: chimeric anti-LTα antibody 2C8 (murine/human chimera) (antibody, human IgG1, kappa, V domains shown)
VH: EVQLQQSGPELVKPGASVKLSCKASGYTFTSYVIHWVKQKPGQGLEWIGYNNPYNDGTNYNEKFKGKATLTSDKSSSTAYMELSSLTSEDSAVYYCSRPTMLPWFAYWGQGTTLTVSA
VL: DIVMTQSHKFMSTSVGDRVSITCKASQAVSSAVAWYQQKPGQSPKLQIYSASHRYTGVPDRFTGSGSGTDFTFTISSVQAEDLAVYYCQQHYSTPWTFGGGTKVEIKR
notes: also called 2C8 chimera; 2C8.chimera

Legend:
[1] = target: T1, recombinant human lymphotoxin-α (LTα), homotrimer LTα3 (human); assay: plate-based ELISA against LTα
[2] = target: T2, recombinant human lymphotoxin-α (LTα), …; assay: plate ELISA on coated LTα
[3] = target: T2, recombinant human lymphotoxin-α (LTα), …; assay: plate-based ELISA on human LTα, ratio to the chimera

Binder	Relative binding (to the original chimera) [2] [x down]	ELISA IC50 ratio [3]	also measured
B1			relative binding (EC50 of the variant / EC50 of version 5) [1]: > 100
B2	> 1000		
B3	> 1000		
B4	> 500		
B5			relative binding (EC50 of the variant / EC50 of version 5) [1]: > 100
B6		1.7	
B7		0.6	
B8		1.2	
B9		1	
B10		1	
